The values that follow come from publication PMC8155463.

This assay addresses ZF-AS, fusion protein containing ZF5.3 and human argininosuccinate synthetase (human). Kind of assay: SEC.

On to “ZF-AS, fusion protein containing ZF5.3 and human argininosuccinate synthetase (enzyme)”, for which the stoichiometry N is 4.

By stoichiometry N is commonly meant the number of molecules, sites or subunits per partner or assembly.
